Paper PMC12421882, “ThIPK1 regulates lignocellulolytic enzyme expression during wood degradation in white-rot fungi” (mBio, 2025)

Substrate: O=P(O)(O)O[C@@H]1[C@@H](OP(=O)(O)O)[C@H](OP(=O)(O)O)[C@H](O)[C@H](OP(=O)(O)O)[C@H]1OP(=O)(O)O
Assay: Kinase-Glo Max luminescent kinase assay; Michaelis-Menten nonlinear regression
Format: biochemical, Trametes hirsuta
Conditions: 300 µM ATP, 5 mM MgCl2, 50 mM NaCl, 50 mM Tris pH 7.5, 28°C

B1: ThIPK1 (Trametes hirsuta) (protein)
chain: MENDAPIIGDTSPQDWKYISEGGSTIVFSYVGPPHPSFDGTALRLRKGPTPAHEDPEKYEKPSLAPAEPSQEPEASAAGGADDEEPDDPTVVFQRTVIERLVPTAHLPRLQPVRVARAWLAQLAARTEALRPAERRARDAIDLGRRKAVLATDLVGGEGWAVEIKPKWGFLPQPAYLSPETRAIKTRTCRFCMHAQLKKTEGEDVALGYCPLDLYSGDAGRVERALRELWDVWVGSGGAVNNLRVFVQGKMVKPSADPASLAPLTAQLLPPTSTTSPDSEPPAATRPPDTLRDAFIATLLPLLLDTPVLRTLSTLQRTLDALDIEGLAALWARVHPAHALGTGPGPGAADPDIAAWARFVDEHIDRLAQAAEDAKGAGEGEGQGENGSEVPATEDELRYRVAAYLLGASFKDCSLILRMRPHAQGTVTVIDLDVKSADRLGKWAALDREIVDAYRGVSNARRCVDAHYGAVPLP
notes: full-length cDNA in pET28a(+), E. coli BL21(DE3), Ni-NTA
B1 was tested, and the Km was 31.42 µM.
